# Measured values reported in patent US20230295301A1 (SHANGHAI JUNSHI BIOSCIENCES, published 2023).
# T1: huCTLA-4 ECD (his-tag) (human, UniProt P16410 37-162)
# T1 construct: also called HX1 hCTLA4 his; HX1 huCTLA4 his; not shown: his-tag
# T1 sequence: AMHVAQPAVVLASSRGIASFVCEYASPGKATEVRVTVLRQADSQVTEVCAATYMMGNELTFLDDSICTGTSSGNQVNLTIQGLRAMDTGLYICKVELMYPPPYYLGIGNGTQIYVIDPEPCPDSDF
# Biological target: T1, huCTLA-4 ECD (his-tag)
# Assay: ELISA, coated huCTLA-4 his
# Description: HX1 hCTLA4 his was diluted with PBS (Hyclone) to 1.0 μg/mL, and the dilution was added to a microplate at 100 μL/well. The plate was let stand in an incubator at 37° C. and coated for 90 min and then washed, and 2% BSA was added to the plate at 200 μL/well. The plate was incubated in an incubator at 37° C. for 90 min and then washed. The humanized anti-CTLA-4 antibodies in Table 4 and the control antibody (ipilimumab) were diluted with a diluent (2% BSA) to 1000 ng/mL. The dilution performed each time was not higher than 10-fold. Then, the humanized antibodies and the control antibody were serially diluted 2.5-fold on a sample dilution plate. All the humanized antibody solutions and the control antibody solution were added to a microplate at 100 μL/well. The plate was incubated in an incubator at 37° C. for 60 min and then washed. An HRP-conjugated goat anti-human antibody IgG (Fc specific) was diluted 5000-fold with 2% BSA, and the dilution was added to the microplate at 100 μL/well. The plate was incubated in an incubator at 37° C. for 60 min and then washed. The color development solution TMB was added at 100 μL/well, during which bubbles were avoided. Color development was allowed at 37° C. for 15 min in the dark and then terminated by adding 2 M hydrochloric acid solution at 100 μL/well, during which bubbles were avoided. Reading (wavelength: 450/620 nm) was done within 10 min using a microplate reader.
row,Binder,binding result
1,"HuJS007-56 (antibody, V domains shown, 4B7 VH2-3 + 4B7VL2; constant regions not specified) VH: QVQLQESGPGLVKPSETLSLTCTVSGYSITSGYYWNWIRQPPGKGLEWIGYIGYDGSNNYNPSLKSRVTISRDTSKNQFSLKLSSVTAADTAVYYCARDYYSGYFDSWGQGTTLTVSS VL: DIQMTQSPSSLSASVGDRVTITCRASQNVGTYVAWYQQKPGKVPKPLIYSTSYRYSGVPSRFSGSGSGTDFTLTISSLQPEDVATYFCHQYDTYPLTFGAGTKLELK",binds
2,"HuJS007-67 (antibody, V domains shown, 4B7 VH2-4 + 4B7VL4; constant regions not specified) VH: QVQLQESGPGLVKPSQTLSLTCAVSAYSITSGYYWNWIRQHPGKGLEWIGYIGYDGSNNYNPSLKSRVTISRDTSKNQFSLKLSSVTAADTAVYYCARDYYSGYFDSWGQGTTLTVSS VL: DIQMTQSPSFLSASVGDRVTITCRASQNVGTYVAWYQQKPGKAPKPLIYSTSYRYSGVPSRFSGSGSGTEFTLTISSLQPEDFATYFCHQYDTYPLTFGAGTKLELK",binds
3,"HuJS007-66 (antibody, V domains shown, 4B7 VH2-4 + 4B7VL3; constant regions not specified) VH: QVQLQESGPGLVKPSQTLSLTCAVSAYSITSGYYWNWIRQHPGKGLEWIGYIGYDGSNNYNPSLKSRVTISRDTSKNQFSLKLSSVTAADTAVYYCARDYYSGYFDSWGQGTTLTVSS VL: DIQMTQSPSSLSASVGDRVTITCRASQNVGTYVAWYQQKPGKAPKPLIYSTSYRYSGVPSRFSGSGSGTDFTLTISSLQPEDFATYFCHQYDTYPLTFGAGTKLELK",binds
4,"HuJS007-59 (antibody, V domains shown, 4B7 VH2-3 + 4B7VL5; constant regions not specified) VH: QVQLQESGPGLVKPSETLSLTCTVSGYSITSGYYWNWIRQPPGKGLEWIGYIGYDGSNNYNPSLKSRVTISRDTSKNQFSLKLSSVTAADTAVYYCARDYYSGYFDSWGQGTTLTVSS VL: DIQMTQSPSSLSASVGDRVTITCQASQNVGTYVAWYQQKPGKAPKPLIYSTSYRYSGVPSRFSGSGSGTDFTFTISSLQPEDIATYFCHQYDTYPLTFGAGTKLELK",binds
5,"HuJS007-65 (antibody, V domains shown, 4B7 VH2-4 + 4B7VL2; constant regions not specified) VH: QVQLQESGPGLVKPSQTLSLTCAVSAYSITSGYYWNWIRQHPGKGLEWIGYIGYDGSNNYNPSLKSRVTISRDTSKNQFSLKLSSVTAADTAVYYCARDYYSGYFDSWGQGTTLTVSS VL: DIQMTQSPSSLSASVGDRVTITCRASQNVGTYVAWYQQKPGKVPKPLIYSTSYRYSGVPSRFSGSGSGTDFTLTISSLQPEDVATYFCHQYDTYPLTFGAGTKLELK",binds

# Second part, the binder after the results:
row,binding result,Binder
1,binds,"HuJS007-68 (antibody, V domains shown, 4B7 VH2-4 + 4B7VL5; constant regions not specified) VH: QVQLQESGPGLVKPSQTLSLTCAVSAYSITSGYYWNWIRQHPGKGLEWIGYIGYDGSNNYNPSLKSRVTISRDTSKNQFSLKLSSVTAADTAVYYCARDYYSGYFDSWGQGTTLTVSS VL: DIQMTQSPSSLSASVGDRVTITCQASQNVGTYVAWYQQKPGKAPKPLIYSTSYRYSGVPSRFSGSGSGTDFTFTISSLQPEDIATYFCHQYDTYPLTFGAGTKLELK"
2,binds,"HuJS007-58 (antibody, V domains shown, 4B7 VH2-3 + 4B7VL4; constant regions not specified) VH: QVQLQESGPGLVKPSETLSLTCTVSGYSITSGYYWNWIRQPPGKGLEWIGYIGYDGSNNYNPSLKSRVTISRDTSKNQFSLKLSSVTAADTAVYYCARDYYSGYFDSWGQGTTLTVSS VL: DIQMTQSPSFLSASVGDRVTITCRASQNVGTYVAWYQQKPGKAPKPLIYSTSYRYSGVPSRFSGSGSGTEFTLTISSLQPEDFATYFCHQYDTYPLTFGAGTKLELK"
3,binds,"HuJS007-57 (antibody, V domains shown, 4B7 VH2-3 + 4B7VL3; constant regions not specified) VH: QVQLQESGPGLVKPSETLSLTCTVSGYSITSGYYWNWIRQPPGKGLEWIGYIGYDGSNNYNPSLKSRVTISRDTSKNQFSLKLSSVTAADTAVYYCARDYYSGYFDSWGQGTTLTVSS VL: DIQMTQSPSSLSASVGDRVTITCRASQNVGTYVAWYQQKPGKAPKPLIYSTSYRYSGVPSRFSGSGSGTDFTLTISSLQPEDFATYFCHQYDTYPLTFGAGTKLELK"
